± gives the uncertainty stated by the source.

The nature of the series: amyloid nucleation score (Sup35N fusion, yeast selection) (log enrichment); library NNK1; higher = more nucleation; inactive = no reads after selection. A digest of the protocol:
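The nucleation score is the log enrichment of output over input reads, calculated with DiMSum and centred on the mode score of non-aggregating sequences. Sequences with under 100 input reads were excluded. Reads came from Illumina sequencing of plasmid inserts from psi-negative yeast expressing Sup35N fused to peptides of 20 random codons, induced 24 hours with 100 μM copper sulfate and grown 7 days at 30°C without adenine and uracil.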
As to TSHPGRCRGYASRASSEVFR, the amyloid nucleation score is -0.038 ± 0.43.

The substance TSHSGIEFRLEFARSSPPSQ showed an amyloid nucleation score of -0.161 ± 0.66.

Consider TSKGCQ, for which the amyloid nucleation score entry was “inactive”.

Regarding TSMVNI, the amyloid nucleation score is 0.084 ± 0.88.

In the case of TSMWTYY, the amyloid nucleation score was 0.298 ± 0.33.

TSNIRVLGHAMVNWVCWGRD came in with an amyloid nucleation score of 3.18 ± 0.18.

With TSPDYPRRYVQMSRR, the amyloid nucleation score stood at 0.507 ± 0.52.

TSPGRYFCRLHVLHSGM: the amyloid nucleation score is -0.468 ± 1.9.

With TSQENTDINGPCKLTSVLQR, the amyloid nucleation score worked out at 0.436 ± 0.68.

Take TSRGGLFYSGVLICAGGIRM: the amyloid nucleation score was -0.032 ± 0.54.

In the case of TSTVG, the amyloid nucleation score result was “inactive”.

On to TSVSKLQHWIYFTFY, for which the amyloid nucleation score was -0.834 ± 1.4.

As to TSYTNAVFESNFA, the amyloid nucleation score is -0.426 ± 0.3.

As for TTFFYYSEGKIR, the amyloid nucleation score was -0.657 ± 0.51.

TTPGALSSRTMSMPDVLGIE came in with an amyloid nucleation score of 1.37 ± 0.5.

Regarding TTTCMRYGLIVC, the amyloid nucleation score worked out at 1.7 ± 0.52.

TVASRFEFYTKDWAYRNGRL: the amyloid nucleation score came out at 1.76 ± 0.33.

As for TVEGSRYFRSSLYHSARSHW, the amyloid nucleation score came out at 1.14 ± 0.55.

For TVFDSLC, the amyloid nucleation score amounted to 0.372 ± 1.2.

For the substance TVFFCNWVEPYDFNICR, the amyloid nucleation score was 6.763 ± 0.059.

TVFFPFLTNSRGDRLRDCWM displayed an amyloid nucleation score of -0.65 ± 1.1.

TVIRESIPKFWFYTLGMLKV had an amyloid nucleation score of -0.6 ± 0.35.

On to TVIRSVIIPITPPIIR, for which the amyloid nucleation score turned out to be 1.57 ± 0.56.

As for TVITFRLAT, the amyloid nucleation score is 1.69 ± 0.26.

In turn, TVKHC yielded an amyloid nucleation score of 3.17 ± 0.14.

In turn, TVLVT had an amyloid nucleation score of -0.461 ± 0.48.

Substance TVLYPGPGAVS yielded an amyloid nucleation score of 0.155 ± 0.73.

For TVMFCRQWVFNCVFFIDIVK, the amyloid nucleation score was 1.31 ± 0.1.

With TVNRMIFFMRLLYTRVKL, the amyloid nucleation score is -1.68 ± 2.7.

For TVPIRTTTLSNGAFVWLI, the amyloid nucleation score entry was “inactive”.

TVSIGDVTRFVMAVASTTF registered an amyloid nucleation score of 0.18 ± 1.1.

The substance TWGSGY yielded an amyloid nucleation score of -0.797 ± 0.93.

As for TWNKCKVADSLFMTRIIMVL, the amyloid nucleation score was found to be 0.305 ± 0.41.

In turn, TWQNRTSLIEVTSYMFHGWV yielded an amyloid nucleation score of 0.294 ± 0.59.

As for TYDQTRMTVHRSSSIERART, the amyloid nucleation score stood at 0.173 ± 1.4.

In the case of TYFFKLNP, the amyloid nucleation score is -1.07 ± 1.4.

For the substance TYFSDLVRRRRCKAGNVWFL, the amyloid nucleation score stood at 1.58 ± 0.74.

Substance TYFSISQLLGFFQSVGPYVF showed an amyloid nucleation score of 0.108 ± 0.56.

On to TYNRGMGGRISVFCLFTGVM, for which the amyloid nucleation score came out at 0.078 ± 0.21.

TYRDKNNVRFKRFLGKRTAC registered an amyloid nucleation score of -1.22 ± 0.99.

On to TYRLH, for which the amyloid nucleation score is -0.57 ± 0.55.

With TYSKSVCWAHHHSYTGVCLT, the amyloid nucleation score is 0.127 ± 0.52.

TYSSARDSS showed an amyloid nucleation score of -0.209 ± 0.63.

Regarding TYYGVSPDTASNAACLYPRH, the amyloid nucleation score is -0.746 ± 1.9.

Substance TYYKQYVLMYRALNFAGSWS gave an amyloid nucleation score of 1.21 ± 0.79.

Take VAAFEIMHLLISCDNRCRFQ: the amyloid nucleation score was 0.337 ± 0.38.

As for VAEEYSN, the amyloid nucleation score result is “inactive”.

In turn, VAFVLLTQVGGWRLGIWRRK had an amyloid nucleation score of -1.09 ± 0.66.

Take VAGFPVEDRLRQISSWAVSG: the amyloid nucleation score was -1.07 ± 0.62.

Regarding VAHSLYLNIYGFQLMS, the amyloid nucleation score came out at 7.454 ± 0.06.

Consider VATRYWSRLCTMFVHSTRTT, for which the amyloid nucleation score result is “inactive”.

For the substance VCFEVWSGHFSASLTM, the amyloid nucleation score came to 0.663 ± 0.44.

As for VCGEYEITVKIISVSRSNKC, the amyloid nucleation score turned out to be 1.45 ± 0.26.

VCIVPIVYPLFKFSVSNDPT displayed an amyloid nucleation score of -0.202 ± 0.57.

In the case of VCKWNSSIFLYNRPSVSAAV, the amyloid nucleation score came out at 0.123 ± 0.4.

VCLANGHWATHMHYIFHYLS showed an amyloid nucleation score of -0.915 ± 0.73.

VCNFLFAFSFW displayed an amyloid nucleation score of 6.746 ± 0.064.

Turning to VCNQWGDHA, the amyloid nucleation score is -1.08 ± 1.7.

VCRRVHGSMP showed an amyloid nucleation score of -0.236 ± 1.2.

With VCSCRFLYI, the amyloid nucleation score is -1.53 ± 1.6.

VCTCFSSWAWEVNF had an amyloid nucleation score of 3.28 ± 0.083.

As for VCYGVLPFEEWKMSFSACVT, the amyloid nucleation score was determined as 0.369 ± 0.37.

On to VDCLFLKHHFFLTVSSMVRN, for which the amyloid nucleation score turned out to be 1.43 ± 0.84.

VDNSCFRGT had an amyloid nucleation score of -0.391 ± 0.66.

With VDRVGYIP, the amyloid nucleation score is -0.506 ± 0.47.

In the case of VDYMERGYYAYIMVGICI, the amyloid nucleation score result was “inactive”.

VECLAAVNYGEVHDPGVMDR displayed an amyloid nucleation score of 0.417 ± 0.71.

Regarding VEFGSHVFYLKGRSDKAKYL, the amyloid nucleation score is -0.283 ± 0.45.

For VEGLERLLVLWHWPFAWNYF, the amyloid nucleation score is -0.735 ± 1.4.

VELSYCMQRMSARIQCGRKP registered an amyloid nucleation score of 2.09 ± 0.43.

VERGY: the amyloid nucleation score came out at 1.03 ± 0.61.

The substance VETIRQINVHVSGVDIHFWD came in with an amyloid nucleation score of 6.872 ± 0.045.

As for VFALMRISSNSMSKCQFVCD, the amyloid nucleation score was -0.187 ± 0.39.

On to VFCYQT, for which the amyloid nucleation score was determined as 0.055 ± 1.1.

As to VFFGLTICFFVAHHCQERGS, the amyloid nucleation score was 2.54 ± 0.21.

Substance VFFLGMVCAVWATFDVSYNG registered an amyloid nucleation score of 1.31 ± 0.35.

In the case of VFFSKI, the amyloid nucleation score came to 1.08 ± 0.53.

Take VFFYSRT: the amyloid nucleation score amounted to 3.02 ± 0.08.

Regarding VFGSKFGLKLITDFINILLR, the amyloid nucleation score result is “inactive”.

On to VFIDGLTSYTEIMRL, for which the amyloid nucleation score entry was “inactive”.

On to VFIVELNFMLRN, for which the amyloid nucleation score came out at 4.69 ± 0.055.

VFKESGSRGFVMYTGILSCQ came in with an amyloid nucleation score of 0.507 ± 0.68.

In the case of VFLVTIWRSIMVLWNTVW, the amyloid nucleation score is -0.284 ± 0.47.

Take VFLVYLY: the amyloid nucleation score was -0.608 ± 0.28.

For VFMMSDTC, the amyloid nucleation score entry is “inactive”.

Take VFNTGYRVSRILDLGYKFNM: the amyloid nucleation score entry was “inactive”.

VFSFYNRNLLILNISLYGYC yielded an amyloid nucleation score of 5.89 ± 0.085.

In the case of VFSKLDTLFTVSMTLRPMWP, the amyloid nucleation score was 0.566 ± 0.79.

VFSSVGGETSYRCMGTASGT registered an amyloid nucleation score of -0.231 ± 0.46.

The substance VFVVNTTESWHNLALFWSSR showed an amyloid nucleation score of 0.382 ± 0.45.

In turn, VFWGL registered an amyloid nucleation score of 0.072 ± 0.47.

Regarding VFYVCFNAKLPLLGYFDLKV, the amyloid nucleation score result was “inactive”.

Substance VGGGSRWDIRDNSNQSIIPM came in with an amyloid nucleation score of -0.338 ± 0.34.

In turn, VGGNPN returned an amyloid nucleation score of 1.19 ± 0.98.

Regarding VGIPRYGYEPVVHALVKPFE, the amyloid nucleation score came to 0.959 ± 0.79.

The substance VGIWLGTGTWGCKGL had an amyloid nucleation score of 0.485 ± 0.66.

VGRFLSYGRWLA: the amyloid nucleation score is -0.393 ± 0.42.

Regarding VGRNQNKTDEG, the amyloid nucleation score stood at 0.564 ± 0.95.

In the case of VGSSLDMPAPKRVGSEYCSV, the amyloid nucleation score came to 0.279 ± 0.66.

For VGTTDG, the amyloid nucleation score entry was “inactive”.

VGVVGDYDLQIS displayed an amyloid nucleation score of -1.2 ± 2.4.

VGWTALVQALGNGTQHGVVT: the amyloid nucleation score came to 0.394 ± 0.78.

On to VGYGASMYYYFFWHKFFLVF, for which the amyloid nucleation score stood at 0.037 ± 1.

On to VGYHFMYSMSAFVASWRSWG, for which the amyloid nucleation score was -0.482 ± 0.88.

The substance VGYSPVVFSLNNICGSPFLM gave an amyloid nucleation score of 5.277 ± 0.047.

As to VHDENYDRFQGFVLDMLQAH, the amyloid nucleation score was 0.641 ± 0.37.

For VHEMNSRTDFYKIKKSGTLV, the amyloid nucleation score stood at 0.158 ± 0.29.

VHSGNMMSNFGWAERLHKKA displayed an amyloid nucleation score of -0.39 ± 1.2.

In the case of VHTWYHCLSAEMSVMSILDL, the amyloid nucleation score is -0.39 ± 1.7.

As to VHYWLVNSSTKRGRPFASAF, the amyloid nucleation score is -0.231 ± 0.36.

In turn, VIDRTEGTYCREITTFHYYN came in with an amyloid nucleation score of -0.378 ± 0.62.

VIHVSTYDSGVLPLKEDGTF: the amyloid nucleation score came out at 0.151 ± 0.4.

On to VILVFRVDNCTERKAN, for which the amyloid nucleation score is -0.097 ± 0.5.

Regarding VIMLVNDAFVGI, the amyloid nucleation score was -0.543 ± 0.26.

In turn, VISHEPAVFPTSRS yielded an amyloid nucleation score of 0.121 ± 0.45.

VITFITSL: the amyloid nucleation score came out at 3.85 ± 0.064.

The substance VITGYVCMDSVQFIWYVVWV yielded an amyloid nucleation score of -0.638 ± 1.

In turn, VITVRLFILW showed an amyloid nucleation score of -0.213 ± 0.43.

As for VIVFCCSEDNRRGQLKV, the amyloid nucleation score is -1.49 ± 0.84.

On to VIYSSIHKLSDGDRVENPRS, for which the amyloid nucleation score was -0.933 ± 0.96.

Consider VKDASFRFAQQEGMRLRMQS, for which the amyloid nucleation score stood at 0.503 ± 0.38.

VKDATSHASGDFGRPGHWDK returned an amyloid nucleation score of -0.042 ± 0.55.

VKLTNLGFRGKFDVVDCHWI yielded an amyloid nucleation score of -0.546 ± 0.34.

VKMFMD came in with an amyloid nucleation score of 0.644 ± 0.59.

The substance VKMYRAFIQGYGSLDRRQFP displayed an amyloid nucleation score of 0.45 ± 0.42.

In turn, VKRGHNGGSAITISLDLYLF registered an amyloid nucleation score of 5.11 ± 0.069.

In turn, VKSADIIVL yielded an amyloid nucleation score of -0.357 ± 0.34.

As for VKSSFNMSARVVLDENIHER, the amyloid nucleation score was -0.067 ± 0.69.

VKVCMGLGYSGLMLGGLWDS: the amyloid nucleation score is -0.491 ± 1.9.

Substance VKYLRYFSSLDLLLIVLQAI had an amyloid nucleation score of 0.31 ± 1.2.

VKYTYDS came in with an amyloid nucleation score of -0.238 ± 0.65.

In the case of VLARNRWRRKWRHTRGWVRG, the amyloid nucleation score was found to be 0.157 ± 1.4.

For the substance VLCNLTVS, the amyloid nucleation score is -0.907 ± 1.8.

Take VLESLAYFPGFNEWCGDMMS: the amyloid nucleation score turned out to be 1.43 ± 0.42.

For the substance VLFGWGCGNTFSRPSNRGQR, the amyloid nucleation score amounted to 0.97 ± 0.37.

The substance VLFIFRSRFNVE displayed an amyloid nucleation score of 3.47 ± 0.11.

The substance VLGERYCPSNVLWLHLCGGE registered an amyloid nucleation score of 0.315 ± 0.28.

For the substance VLGMPSLRILYITCCSDMVC, the amyloid nucleation score came to 6.37 ± 0.046.

VLHEGCIMFKKLLLKALCRR had an amyloid nucleation score of -0.128 ± 0.45.

Take VLLGSCWVFKSQKGRGPSSC: the amyloid nucleation score is -0.51 ± 0.69.

As for VLLQELLSYITIGCLELGFG, the amyloid nucleation score is 0.11 ± 0.3.

VLMITGVCCSHNMLVLADKR yielded an amyloid nucleation score of 6.609 ± 0.057.
